In the supplement of paper PMC11908140:

B1: library; numbered along this chain (parent)
chain: MRKPRAAVGSGHRKQAASQEGRQKHAKNNSQAKPSACDGLARQPEEVVLQASVSSYHLFRDVAEVTAFRGSLLSWYDQEKRDLPWRRRAEDEMDLDRRAYAVWVSEVMLQQTQVATVINYYTGWMQKWPTLQDLASASLEEVNQLWAGLGYYSRGRRLQEGARKVVEELGGHMPRTAETLQQLLPGVGRYTAGAIASIAFGQATGVVDGNVARVLCRVRAIGADPSSTLVSQQLWGLAQQLVDPARPGDFNQAAMELGATVCTPQRPLCSQCPVESLCRARQRVEQEQLLASGSLSGSPDVEECAPNTGQCHLCLPPSEPWDQTLGVVNFPRKASRKPPREESSATCVLEQPGALGAQILLVQRPNSGLLAGLWEFPSVTWEPSEQLQRKALLQELQRWAGPLPATHLRHLGEVVHTFSHIKLTYQVYGLALEGQTPVTTVPPGARWLTQEEFHTAAVSTAMKKVFRVYQGQQPGTCMGSKRSQVSSPCSRKKPRMGQQVLDNFFRSHISTDAHSLNSAAQ

Variants of: B1
Assay: 8OG:A repair function score (normalized; synonymous = 0, nonsense = -1) (normalized log-likelihood score); higher = more repair activity (WT-like)
Settings: with 8OG:A DNA repair reporter (GFP) in HEK-293 MUTYH KO cells
Protocol: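 Saturation mutagenesis (NNN codon scan) of the MUTYH cDNA (521-aa nuclear isoform NM_001048174.1 / NP_001041639), stably expressed under doxycycline induction in HEK-293 MUTYH knockout cells. Cells were co-transfected with an 8OG:A-bearing GFP repair reporter plus mCherry and sorted 72 h later into GFP+ and GFP− bins, three replicates per tile. The Rosace log2 enrichment (GFP+ vs GFP−) was converted per tile to a normalized function score with synonymous variants centered at 0 and nonsense variants (codons 1-471) at -1; low-abundance variants were removed.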

Variant | 8OG:A repair function score
MRKPRAAVGSGHRKQAASQEGRQKHAKNNSQAKPSACDGLARQPEEVVLQASVSSYHLFRDVAEVTAFRGSLLSWYDQEKRDLPWRRRAEDEMDLDRRAYAVWVSEVMLQQTQVATVINYYTGWMQKWPTLQDLASASLEEVNQLWAGLGYYSRGDRLQEGARKVVEELGGHMPRTAETLQQLLPGVGRYTAGAIASIAFGQATGVVDGNVARVLCRVRAIGADPSSTLVSQQLWGLAQQLVDPARPGDFNQAAMELGATVCTPQRPLCSQCPVESLCRARQRVEQEQLLASGSLSGSPDVEECAPNTGQCHLCLPPSEPWDQTLGVVNFPRKASRKPPREESSATCVLEQPGALGAQILLVQRPNSGLLAGLWEFPSVTWEPSEQLQRKALLQELQRWAGPLPATHLRHLGEVVHTFSHIKLTYQVYGLALEGQTPVTTVPPGARWLTQEEFHTAAVSTAMKKVFRVYQGQQPGTCMGSKRSQVSSPCSRKKPRMGQQVLDNFFRSHISTDAHSLNSAAQ [R156D] | -0.477
MRKPRAAVGSGHRKQAASQEGRQKHAKNNSQAKPSACDGLARQPEEVVLQASVSSYHLFRDVAEVTAFRGSLLSWYDQEKRDLPWRRRAEDEMDLDRRAYAVWVSEVMLQQTQVATVINYYTGWMQKWPTLQDLASASLEEVNQLWAGLGYYSRGFRLQEGARKVVEELGGHMPRTAETLQQLLPGVGRYTAGAIASIAFGQATGVVDGNVARVLCRVRAIGADPSSTLVSQQLWGLAQQLVDPARPGDFNQAAMELGATVCTPQRPLCSQCPVESLCRARQRVEQEQLLASGSLSGSPDVEECAPNTGQCHLCLPPSEPWDQTLGVVNFPRKASRKPPREESSATCVLEQPGALGAQILLVQRPNSGLLAGLWEFPSVTWEPSEQLQRKALLQELQRWAGPLPATHLRHLGEVVHTFSHIKLTYQVYGLALEGQTPVTTVPPGARWLTQEEFHTAAVSTAMKKVFRVYQGQQPGTCMGSKRSQVSSPCSRKKPRMGQQVLDNFFRSHISTDAHSLNSAAQ [R156F] | -0.3
MRKPRAAVGSGHRKQAASQEGRQKHAKNNSQAKPSACDGLARQPEEVVLQASVSSYHLFRDVAEVTAFRGSLLSWYDQEKRDLPWRRRAEDEMDLDRRAYAVWVSEVMLQQTQVATVINYYTGWMQKWPTLQDLASASLEEVNQLWAGLGYYSRGARLQEGARKVVEELGGHMPRTAETLQQLLPGVGRYTAGAIASIAFGQATGVVDGNVARVLCRVRAIGADPSSTLVSQQLWGLAQQLVDPARPGDFNQAAMELGATVCTPQRPLCSQCPVESLCRARQRVEQEQLLASGSLSGSPDVEECAPNTGQCHLCLPPSEPWDQTLGVVNFPRKASRKPPREESSATCVLEQPGALGAQILLVQRPNSGLLAGLWEFPSVTWEPSEQLQRKALLQELQRWAGPLPATHLRHLGEVVHTFSHIKLTYQVYGLALEGQTPVTTVPPGARWLTQEEFHTAAVSTAMKKVFRVYQGQQPGTCMGSKRSQVSSPCSRKKPRMGQQVLDNFFRSHISTDAHSLNSAAQ [R156A] | -0.122
MRKPRAAVGSGHRKQAASQEGRQKHAKNNSQAKPSACDGLARQPEEVVLQASVSSYHLFRDVAEVTAFRGSLLSWYDQEKRDLPWRRRAEDEMDLDRRAYAVWVSEVMLQQTQVATVINYYTGWMQKWPTLQDLASASLEEVNQLWAGLGYYSRGHRLQEGARKVVEELGGHMPRTAETLQQLLPGVGRYTAGAIASIAFGQATGVVDGNVARVLCRVRAIGADPSSTLVSQQLWGLAQQLVDPARPGDFNQAAMELGATVCTPQRPLCSQCPVESLCRARQRVEQEQLLASGSLSGSPDVEECAPNTGQCHLCLPPSEPWDQTLGVVNFPRKASRKPPREESSATCVLEQPGALGAQILLVQRPNSGLLAGLWEFPSVTWEPSEQLQRKALLQELQRWAGPLPATHLRHLGEVVHTFSHIKLTYQVYGLALEGQTPVTTVPPGARWLTQEEFHTAAVSTAMKKVFRVYQGQQPGTCMGSKRSQVSSPCSRKKPRMGQQVLDNFFRSHISTDAHSLNSAAQ [R156H] | -0.0809
MRKPRAAVGSGHRKQAASQEGRQKHAKNNSQAKPSACDGLARQPEEVVLQASVSSYHLFRDVAEVTAFRGSLLSWYDQEKRDLPWRRRAEDEMDLDRRAYAVWVSEVMLQQTQVATVINYYTGWMQKWPTLQDLASASLEEVNQLWAGLGYYSRGGRLQEGARKVVEELGGHMPRTAETLQQLLPGVGRYTAGAIASIAFGQATGVVDGNVARVLCRVRAIGADPSSTLVSQQLWGLAQQLVDPARPGDFNQAAMELGATVCTPQRPLCSQCPVESLCRARQRVEQEQLLASGSLSGSPDVEECAPNTGQCHLCLPPSEPWDQTLGVVNFPRKASRKPPREESSATCVLEQPGALGAQILLVQRPNSGLLAGLWEFPSVTWEPSEQLQRKALLQELQRWAGPLPATHLRHLGEVVHTFSHIKLTYQVYGLALEGQTPVTTVPPGARWLTQEEFHTAAVSTAMKKVFRVYQGQQPGTCMGSKRSQVSSPCSRKKPRMGQQVLDNFFRSHISTDAHSLNSAAQ [R156G] | -0.287
MRKPRAAVGSGHRKQAASQEGRQKHAKNNSQAKPSACDGLARQPEEVVLQASVSSYHLFRDVAEVTAFRGSLLSWYDQEKRDLPWRRRAEDEMDLDRRAYAVWVSEVMLQQTQVATVINYYTGWMQKWPTLQDLASASLEEVNQLWAGLGYYSRGERLQEGARKVVEELGGHMPRTAETLQQLLPGVGRYTAGAIASIAFGQATGVVDGNVARVLCRVRAIGADPSSTLVSQQLWGLAQQLVDPARPGDFNQAAMELGATVCTPQRPLCSQCPVESLCRARQRVEQEQLLASGSLSGSPDVEECAPNTGQCHLCLPPSEPWDQTLGVVNFPRKASRKPPREESSATCVLEQPGALGAQILLVQRPNSGLLAGLWEFPSVTWEPSEQLQRKALLQELQRWAGPLPATHLRHLGEVVHTFSHIKLTYQVYGLALEGQTPVTTVPPGARWLTQEEFHTAAVSTAMKKVFRVYQGQQPGTCMGSKRSQVSSPCSRKKPRMGQQVLDNFFRSHISTDAHSLNSAAQ [R156E] | -0.319
MRKPRAAVGSGHRKQAASQEGRQKHAKNNSQAKPSACDGLARQPEEVVLQASVSSYHLFRDVAEVTAFRGSLLSWYDQEKRDLPWRRRAEDEMDLDRRAYAVWVSEVMLQQTQVATVINYYTGWMQKWPTLQDLASASLEEVNQLWAGLGYYSRGCRLQEGARKVVEELGGHMPRTAETLQQLLPGVGRYTAGAIASIAFGQATGVVDGNVARVLCRVRAIGADPSSTLVSQQLWGLAQQLVDPARPGDFNQAAMELGATVCTPQRPLCSQCPVESLCRARQRVEQEQLLASGSLSGSPDVEECAPNTGQCHLCLPPSEPWDQTLGVVNFPRKASRKPPREESSATCVLEQPGALGAQILLVQRPNSGLLAGLWEFPSVTWEPSEQLQRKALLQELQRWAGPLPATHLRHLGEVVHTFSHIKLTYQVYGLALEGQTPVTTVPPGARWLTQEEFHTAAVSTAMKKVFRVYQGQQPGTCMGSKRSQVSSPCSRKKPRMGQQVLDNFFRSHISTDAHSLNSAAQ [R156C] | -0.162
MRKPRAAVGSGHRKQAASQEGRQKHAKNNSQAKPSACDGLARQPEEVVLQASVSSYHLFRDVAEVTAFRGSLLSWYDQEKRDLPWRRRAEDEMDLDRRAYAVWVSEVMLQQTQVATVINYYTGWMQKWPTLQDLASASLEEVNQLWAGLGYYSRSRRLQEGARKVVEELGGHMPRTAETLQQLLPGVGRYTAGAIASIAFGQATGVVDGNVARVLCRVRAIGADPSSTLVSQQLWGLAQQLVDPARPGDFNQAAMELGATVCTPQRPLCSQCPVESLCRARQRVEQEQLLASGSLSGSPDVEECAPNTGQCHLCLPPSEPWDQTLGVVNFPRKASRKPPREESSATCVLEQPGALGAQILLVQRPNSGLLAGLWEFPSVTWEPSEQLQRKALLQELQRWAGPLPATHLRHLGEVVHTFSHIKLTYQVYGLALEGQTPVTTVPPGARWLTQEEFHTAAVSTAMKKVFRVYQGQQPGTCMGSKRSQVSSPCSRKKPRMGQQVLDNFFRSHISTDAHSLNSAAQ [G155S] | -0.0824
MRKPRAAVGSGHRKQAASQEGRQKHAKNNSQAKPSACDGLARQPEEVVLQASVSSYHLFRDVAEVTAFRGSLLSWYDQEKRDLPWRRRAEDEMDLDRRAYAVWVSEVMLQQTQVATVINYYTGWMQKWPTLQDLASASLEEVNQLWAGLGYYSRVRRLQEGARKVVEELGGHMPRTAETLQQLLPGVGRYTAGAIASIAFGQATGVVDGNVARVLCRVRAIGADPSSTLVSQQLWGLAQQLVDPARPGDFNQAAMELGATVCTPQRPLCSQCPVESLCRARQRVEQEQLLASGSLSGSPDVEECAPNTGQCHLCLPPSEPWDQTLGVVNFPRKASRKPPREESSATCVLEQPGALGAQILLVQRPNSGLLAGLWEFPSVTWEPSEQLQRKALLQELQRWAGPLPATHLRHLGEVVHTFSHIKLTYQVYGLALEGQTPVTTVPPGARWLTQEEFHTAAVSTAMKKVFRVYQGQQPGTCMGSKRSQVSSPCSRKKPRMGQQVLDNFFRSHISTDAHSLNSAAQ [G155V] | -0.116
MRKPRAAVGSGHRKQAASQEGRQKHAKNNSQAKPSACDGLARQPEEVVLQASVSSYHLFRDVAEVTAFRGSLLSWYDQEKRDLPWRRRAEDEMDLDRRAYAVWVSEVMLQQTQVATVINYYTGWMQKWPTLQDLASASLEEVNQLWAGLGYYSRYRRLQEGARKVVEELGGHMPRTAETLQQLLPGVGRYTAGAIASIAFGQATGVVDGNVARVLCRVRAIGADPSSTLVSQQLWGLAQQLVDPARPGDFNQAAMELGATVCTPQRPLCSQCPVESLCRARQRVEQEQLLASGSLSGSPDVEECAPNTGQCHLCLPPSEPWDQTLGVVNFPRKASRKPPREESSATCVLEQPGALGAQILLVQRPNSGLLAGLWEFPSVTWEPSEQLQRKALLQELQRWAGPLPATHLRHLGEVVHTFSHIKLTYQVYGLALEGQTPVTTVPPGARWLTQEEFHTAAVSTAMKKVFRVYQGQQPGTCMGSKRSQVSSPCSRKKPRMGQQVLDNFFRSHISTDAHSLNSAAQ [G155Y] | -0.667
MRKPRAAVGSGHRKQAASQEGRQKHAKNNSQAKPSACDGLARQPEEVVLQASVSSYHLFRDVAEVTAFRGSLLSWYDQEKRDLPWRRRAEDEMDLDRRAYAVWVSEVMLQQTQVATVINYYTGWMQKWPTLQDLASASLEEVNQLWAGLGYYSRTRRLQEGARKVVEELGGHMPRTAETLQQLLPGVGRYTAGAIASIAFGQATGVVDGNVARVLCRVRAIGADPSSTLVSQQLWGLAQQLVDPARPGDFNQAAMELGATVCTPQRPLCSQCPVESLCRARQRVEQEQLLASGSLSGSPDVEECAPNTGQCHLCLPPSEPWDQTLGVVNFPRKASRKPPREESSATCVLEQPGALGAQILLVQRPNSGLLAGLWEFPSVTWEPSEQLQRKALLQELQRWAGPLPATHLRHLGEVVHTFSHIKLTYQVYGLALEGQTPVTTVPPGARWLTQEEFHTAAVSTAMKKVFRVYQGQQPGTCMGSKRSQVSSPCSRKKPRMGQQVLDNFFRSHISTDAHSLNSAAQ [G155T] | -0.218
MRKPRAAVGSGHRKQAASQEGRQKHAKNNSQAKPSACDGLARQPEEVVLQASVSSYHLFRDVAEVTAFRGSLLSWYDQEKRDLPWRRRAEDEMDLDRRAYAVWVSEVMLQQTQVATVINYYTGWMQKWPTLQDLASASLEEVNQLWAGLGYYSRWRRLQEGARKVVEELGGHMPRTAETLQQLLPGVGRYTAGAIASIAFGQATGVVDGNVARVLCRVRAIGADPSSTLVSQQLWGLAQQLVDPARPGDFNQAAMELGATVCTPQRPLCSQCPVESLCRARQRVEQEQLLASGSLSGSPDVEECAPNTGQCHLCLPPSEPWDQTLGVVNFPRKASRKPPREESSATCVLEQPGALGAQILLVQRPNSGLLAGLWEFPSVTWEPSEQLQRKALLQELQRWAGPLPATHLRHLGEVVHTFSHIKLTYQVYGLALEGQTPVTTVPPGARWLTQEEFHTAAVSTAMKKVFRVYQGQQPGTCMGSKRSQVSSPCSRKKPRMGQQVLDNFFRSHISTDAHSLNSAAQ [G155W] | -0.265
